From US20220289795, “EFFICIENT METHOD FOR PREPARING PPR PROTEIN AND USE OF THE SAME” (EditForce, Inc., published 2022) come the findings set out here.

What all share (assay): ELONA; RPB-ELISA
In general terms: In an ELISA, binding on a coated surface is turned into a signal by an enzyme label.

Data set [1] addresses T1, NL_v2_PPR20 (Artificial Sequence).
T1 chain: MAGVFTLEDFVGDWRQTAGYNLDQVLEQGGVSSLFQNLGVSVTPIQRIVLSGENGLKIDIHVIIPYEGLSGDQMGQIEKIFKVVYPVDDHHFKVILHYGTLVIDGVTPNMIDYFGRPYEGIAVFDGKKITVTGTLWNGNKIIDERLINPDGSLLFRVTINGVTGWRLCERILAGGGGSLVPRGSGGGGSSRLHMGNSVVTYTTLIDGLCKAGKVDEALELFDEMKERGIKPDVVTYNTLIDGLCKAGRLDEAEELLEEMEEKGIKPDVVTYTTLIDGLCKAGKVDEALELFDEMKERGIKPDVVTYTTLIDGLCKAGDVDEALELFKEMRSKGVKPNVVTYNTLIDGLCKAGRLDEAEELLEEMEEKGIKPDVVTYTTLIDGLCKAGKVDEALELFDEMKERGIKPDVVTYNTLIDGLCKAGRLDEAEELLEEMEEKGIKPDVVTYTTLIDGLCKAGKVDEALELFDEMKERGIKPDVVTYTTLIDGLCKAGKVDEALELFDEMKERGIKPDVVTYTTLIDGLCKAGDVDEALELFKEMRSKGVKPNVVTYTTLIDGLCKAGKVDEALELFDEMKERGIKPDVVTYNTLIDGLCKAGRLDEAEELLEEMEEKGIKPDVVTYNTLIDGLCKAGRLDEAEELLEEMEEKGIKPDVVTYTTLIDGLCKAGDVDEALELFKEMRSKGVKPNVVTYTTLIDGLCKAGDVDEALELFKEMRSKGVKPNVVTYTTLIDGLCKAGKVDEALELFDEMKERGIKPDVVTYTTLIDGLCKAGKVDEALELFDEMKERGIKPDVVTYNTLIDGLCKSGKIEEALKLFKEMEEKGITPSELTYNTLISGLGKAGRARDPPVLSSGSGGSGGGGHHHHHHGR
The following applies: tags: N-term luciferase, C-term 6xHis; label: 5'-biotin.

For data set [2], the target named is T2, v3.1_PPR20 (Artificial Sequence).
T2 chain: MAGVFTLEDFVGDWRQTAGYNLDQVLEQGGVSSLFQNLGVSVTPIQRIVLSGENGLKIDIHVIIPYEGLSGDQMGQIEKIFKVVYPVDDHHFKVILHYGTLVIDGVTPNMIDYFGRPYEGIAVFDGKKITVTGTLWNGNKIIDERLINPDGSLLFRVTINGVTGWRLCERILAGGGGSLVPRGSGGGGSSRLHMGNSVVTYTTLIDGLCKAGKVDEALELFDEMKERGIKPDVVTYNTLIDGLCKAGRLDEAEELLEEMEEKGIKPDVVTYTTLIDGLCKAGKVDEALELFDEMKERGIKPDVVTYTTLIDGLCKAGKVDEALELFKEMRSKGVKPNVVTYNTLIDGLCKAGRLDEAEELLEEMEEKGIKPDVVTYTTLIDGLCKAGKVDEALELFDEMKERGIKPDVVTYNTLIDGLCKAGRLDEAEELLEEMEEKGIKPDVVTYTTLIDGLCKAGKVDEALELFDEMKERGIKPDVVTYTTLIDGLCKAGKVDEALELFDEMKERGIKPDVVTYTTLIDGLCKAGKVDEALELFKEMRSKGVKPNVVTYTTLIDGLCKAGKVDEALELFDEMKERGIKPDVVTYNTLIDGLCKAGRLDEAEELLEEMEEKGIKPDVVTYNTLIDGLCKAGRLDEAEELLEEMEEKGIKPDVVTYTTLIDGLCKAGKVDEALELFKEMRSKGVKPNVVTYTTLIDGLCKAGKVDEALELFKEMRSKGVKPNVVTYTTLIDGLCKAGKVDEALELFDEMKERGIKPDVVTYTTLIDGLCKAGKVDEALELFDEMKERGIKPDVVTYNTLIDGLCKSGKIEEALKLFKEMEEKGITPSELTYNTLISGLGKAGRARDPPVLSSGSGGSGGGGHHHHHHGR
The conditions noted are these: tags: luciferase fusion; label: 5'-biotin.

The target of data set [3] is T3, v3.1_PPR19 (Artificial Sequence).
T3 chain: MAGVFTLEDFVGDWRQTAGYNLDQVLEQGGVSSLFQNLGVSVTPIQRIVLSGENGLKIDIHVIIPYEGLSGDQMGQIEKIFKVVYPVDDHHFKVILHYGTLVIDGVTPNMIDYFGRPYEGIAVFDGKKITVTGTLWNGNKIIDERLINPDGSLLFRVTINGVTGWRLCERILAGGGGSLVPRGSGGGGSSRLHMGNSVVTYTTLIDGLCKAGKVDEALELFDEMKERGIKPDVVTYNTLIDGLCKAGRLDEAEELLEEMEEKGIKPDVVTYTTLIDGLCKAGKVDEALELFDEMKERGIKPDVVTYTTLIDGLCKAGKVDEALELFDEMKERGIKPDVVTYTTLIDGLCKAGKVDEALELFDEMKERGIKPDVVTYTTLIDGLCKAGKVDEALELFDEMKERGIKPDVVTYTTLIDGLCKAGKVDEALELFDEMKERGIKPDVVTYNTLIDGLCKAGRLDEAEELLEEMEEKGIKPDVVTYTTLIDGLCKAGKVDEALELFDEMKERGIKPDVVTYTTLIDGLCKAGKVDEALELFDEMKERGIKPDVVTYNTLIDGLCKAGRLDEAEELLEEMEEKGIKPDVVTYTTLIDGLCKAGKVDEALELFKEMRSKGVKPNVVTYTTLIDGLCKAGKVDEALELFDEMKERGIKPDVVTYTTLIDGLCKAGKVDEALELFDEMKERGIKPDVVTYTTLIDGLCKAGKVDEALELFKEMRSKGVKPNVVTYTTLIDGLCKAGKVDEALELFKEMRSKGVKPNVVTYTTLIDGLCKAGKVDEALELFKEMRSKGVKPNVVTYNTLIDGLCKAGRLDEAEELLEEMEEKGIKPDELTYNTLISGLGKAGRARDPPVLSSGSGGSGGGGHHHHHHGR
The conditions noted are these: tags: luciferase fusion; label: 5'-biotin.

Data set [4] addresses T4, NL_v2_PPR19 (Artificial Sequence).
T4 chain: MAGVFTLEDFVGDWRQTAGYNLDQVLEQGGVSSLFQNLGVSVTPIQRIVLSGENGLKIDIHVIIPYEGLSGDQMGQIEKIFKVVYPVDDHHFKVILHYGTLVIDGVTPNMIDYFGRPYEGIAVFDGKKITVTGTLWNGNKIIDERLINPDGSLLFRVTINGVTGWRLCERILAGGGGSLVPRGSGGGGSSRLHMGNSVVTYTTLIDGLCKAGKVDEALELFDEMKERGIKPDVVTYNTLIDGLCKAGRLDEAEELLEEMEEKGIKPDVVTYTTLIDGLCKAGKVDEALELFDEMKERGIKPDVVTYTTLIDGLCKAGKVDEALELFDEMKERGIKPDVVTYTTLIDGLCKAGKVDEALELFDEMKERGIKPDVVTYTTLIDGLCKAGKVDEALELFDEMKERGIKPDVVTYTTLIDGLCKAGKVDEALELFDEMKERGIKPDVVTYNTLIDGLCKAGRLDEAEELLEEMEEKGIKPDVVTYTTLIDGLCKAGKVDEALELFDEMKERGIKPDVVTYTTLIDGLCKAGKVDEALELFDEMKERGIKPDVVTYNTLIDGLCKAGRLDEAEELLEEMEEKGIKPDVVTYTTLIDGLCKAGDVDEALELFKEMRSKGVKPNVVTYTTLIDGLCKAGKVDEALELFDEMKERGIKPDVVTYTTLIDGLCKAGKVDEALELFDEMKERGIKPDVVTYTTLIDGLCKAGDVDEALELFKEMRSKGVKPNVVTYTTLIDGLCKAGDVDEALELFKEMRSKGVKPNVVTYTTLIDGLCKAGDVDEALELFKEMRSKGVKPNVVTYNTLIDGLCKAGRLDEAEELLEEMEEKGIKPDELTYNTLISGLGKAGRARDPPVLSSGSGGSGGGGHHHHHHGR
The conditions noted are these: tags: N-term luciferase, C-term 6xHis; label: 5'-biotin.

Data set [5] has as its target T5, NL_v2_PPR21 (Artificial Sequence).
T5 chain: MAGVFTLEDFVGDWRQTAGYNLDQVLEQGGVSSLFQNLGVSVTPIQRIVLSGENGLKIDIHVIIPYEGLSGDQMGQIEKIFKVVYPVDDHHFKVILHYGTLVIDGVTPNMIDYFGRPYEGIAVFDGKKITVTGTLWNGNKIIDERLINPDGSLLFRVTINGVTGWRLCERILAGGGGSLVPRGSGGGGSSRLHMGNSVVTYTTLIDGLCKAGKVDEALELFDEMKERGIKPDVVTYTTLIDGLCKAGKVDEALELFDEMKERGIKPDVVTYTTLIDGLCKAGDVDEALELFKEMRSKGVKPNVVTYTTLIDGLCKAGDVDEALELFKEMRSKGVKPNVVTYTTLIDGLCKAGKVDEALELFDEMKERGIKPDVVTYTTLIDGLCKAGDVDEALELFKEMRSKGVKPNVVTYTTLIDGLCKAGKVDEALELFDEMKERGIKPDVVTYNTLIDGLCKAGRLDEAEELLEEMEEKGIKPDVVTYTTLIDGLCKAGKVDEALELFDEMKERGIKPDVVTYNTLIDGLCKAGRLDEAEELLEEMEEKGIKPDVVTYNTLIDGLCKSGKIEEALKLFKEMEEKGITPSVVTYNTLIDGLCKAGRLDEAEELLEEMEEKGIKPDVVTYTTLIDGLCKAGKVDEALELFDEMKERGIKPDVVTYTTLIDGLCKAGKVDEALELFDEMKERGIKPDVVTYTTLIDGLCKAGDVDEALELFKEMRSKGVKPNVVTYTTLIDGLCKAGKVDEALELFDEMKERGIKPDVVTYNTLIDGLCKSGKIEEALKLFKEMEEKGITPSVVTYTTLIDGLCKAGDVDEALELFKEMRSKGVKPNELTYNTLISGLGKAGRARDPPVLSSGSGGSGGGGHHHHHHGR
The conditions noted are these: tags: N-term luciferase, C-term 6xHis; label: 5'-biotin.

In data set [6] the target is T6, v3.1_PPR21 (Artificial Sequence).
T6 chain: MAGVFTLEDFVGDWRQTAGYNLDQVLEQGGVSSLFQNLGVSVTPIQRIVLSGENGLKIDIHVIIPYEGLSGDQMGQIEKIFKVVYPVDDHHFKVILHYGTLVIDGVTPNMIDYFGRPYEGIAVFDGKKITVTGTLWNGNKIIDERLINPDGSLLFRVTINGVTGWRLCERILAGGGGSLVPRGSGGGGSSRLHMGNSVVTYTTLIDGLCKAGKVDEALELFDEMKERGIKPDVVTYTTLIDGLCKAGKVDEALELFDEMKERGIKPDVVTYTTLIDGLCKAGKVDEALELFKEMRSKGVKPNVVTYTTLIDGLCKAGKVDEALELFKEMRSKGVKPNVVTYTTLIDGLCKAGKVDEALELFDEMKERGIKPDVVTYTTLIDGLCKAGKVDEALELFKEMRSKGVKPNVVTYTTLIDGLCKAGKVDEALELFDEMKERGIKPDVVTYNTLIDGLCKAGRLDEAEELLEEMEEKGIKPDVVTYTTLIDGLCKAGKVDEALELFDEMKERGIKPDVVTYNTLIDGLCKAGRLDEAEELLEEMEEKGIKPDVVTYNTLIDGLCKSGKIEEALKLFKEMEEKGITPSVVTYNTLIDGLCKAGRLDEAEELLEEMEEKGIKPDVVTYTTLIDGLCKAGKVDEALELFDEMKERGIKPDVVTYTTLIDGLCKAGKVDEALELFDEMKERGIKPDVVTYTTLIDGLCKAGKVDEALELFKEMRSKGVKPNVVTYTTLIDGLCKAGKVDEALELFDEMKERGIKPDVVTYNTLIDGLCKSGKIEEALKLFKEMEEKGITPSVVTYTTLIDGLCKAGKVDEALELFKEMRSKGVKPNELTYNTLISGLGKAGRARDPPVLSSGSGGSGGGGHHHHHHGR
The conditions noted are these: tags: luciferase fusion; label: 5'-biotin.

B1: RNA_20 (ssRNA)
RNA: GACAUGCGUGAUGUGGAGUUAAGGCGACUG
For B1, the binding signal in data set [1] came out at 1.2e+07 luminescence; in data set [2] it was 3.6e+06 luminescence.

B2: RNA_19 (ssRNA)
RNA: GACAUGCGUGGGGGUGGUAGGAAAUGACUG
Turning to B2, the binding signal in data set [3] and in data set [4] was 1.3e+07 luminescence throughout.

B3: RNA_21 (ssRNA)
RNA: GACAUGCGGAAGAGUGUCUGGAGCAGACUG
B3: the binding signal amounted to 5e+07 luminescence in data set [5] and 4.9e+06 luminescence in data set [6].
